According to publication PMC11643828, “Tumor-Targeted Cell-Penetrating Peptides Reveal That Monomethyl Auristatin E Temporally Modulates the Tumor Immune Microenvironment” (Molecules, 2024):
*1 amine or outer side, *2 acyl side, *3 side chain or, on linkers, in order; H or OH if unused. Where a SMILES comes first, the peptide text is derived from it. Bridges are numbered along the chain shown (N, C = ends). Roman numbers before positions name the chains, in order. [ ]: non-standard residue; d: D form. The star is where a group is joined. X2 = O=C(CCCCCN1C(=O)CC([*:2])C1=O)NCCOCCOCCOCCOCCOCCOCCOCCOCCC(=O)[*:1]; Hexanoyl(6-succinimido-3yl) = O=C1CC([*:1])C(=O)N1CCCCCC(=O)[*:2]; Dolaproine = CO[C@@H]([C@@H]1CCCN1)[C@@H](C)C(=O)O; Dil = CC[C@H](C)[C@H](NC)[C@@H](CC(=O)O)OC; PABC = O=C(OCc1ccc(N[*:1])cc1)[*:2]; X1 = C[C@@H](N*)[C@@H](O)c1ccccc1; Cit = NC(=O)NCCC[C@H](N)C(=O)O; NMeV = CN[C@H](C(=O)O)C(C)C; AEA = NCCOCC(=O)O

What was measured:
[1] = Mouse body weights in the therapy studies (safety and tolerability); format: in vivo, mice; settings: LL2 and B16 therapy studies, total 40 nmoles IV, weighed weekly
Protocol: To assess the safety and tolerability of systemically administered ACPP-MMAE conjugate, mice weights were measured weekly in the two therapy studies above.
(A) Mice bearing LL2 tumors IV injected with vehicle (untreated) or cRGD-ACPP-MMAE (20 nmoles on days 4 and 6). Individual tumor volumes plotted, left panel. Average tumors volumes on day 18 plotted as mean ± SEM, right panel (n = 10 for untreated, n = 6 for cRGD-ACPP-MMAE). Statistical significance calculated using two-tailed t testing. (B) Mice bearing B16 tumors IV injected with vehicle (untreated) or cRGD-ACPP-MMAE (20 nmoles on days 3 and 5). Individual tumor volumes plotted, left panel. Average tumors volumes on day 19 plotted as mean ± SEM, right panel (n = 10 for untreated, n = 6 for cRGD-ACPP-MMAE). Statistical significance calculated using two-tailed t testing. (C) Mouse body weights of mice from experiments in (A,B), plotted as mean fractional body weight ± SEM.
LL2 and B16 tumor cells were injected subcutaneously into the hindlimbs of 6-week-old female C57BL/6 albino mice in 100 µL of 1:1 Growth Factor Reduced Matrigel (BD) and PBS solution. […] Tumor volumes were measured and calculated using the formula as ½ × Length × Width^2. Body weights were measured weekly to assess general animal health.

[2] = Tissue drug measurement (MMAE biodistribution) after IV cRGD-ACPP-MMAE; format: in vivo; settings: mice with HCT116 xenografts, 10 nmoles IV
Protocol: To determine tissue specificity and the kinetics of ACPP targeting in human and murine tumor model systems, we used complementary approaches, measuring drug concentrations in harvested tissues and non-invasive fluorescence whole-animal imaging. First, the pharmacokinetics of cRGD-ACPP-MMAE drug accumulation were measured in tumor and normal tissues from mice with human HCT116 xenografts. Tumor-bearing mice were intravenously (IV) injected with cRGD-ACPP-MMAE (Figure 3A). Blood, tumor, and normal tissues (heart, kidney, liver, and muscle) were collected 2, 6, and 24 h after IV injection and assayed for MMAE by LC–MS/MS (Figure 3C). […] To determine the spatial specificity of ACPP drug delivery, normal muscle tissue adjacent to the tumor xenograft was harvested.
Mice with established subcutaneous HCT116 tumors were intravenously injected through the tail vein with 10 nmoles of cRGD-ACPP-MMAE. Tumors, blood, and normal tissues were harvested at indicated time points and homogenized in 10 volumes of PBS with a point sonicator (amplitude range 5–15%). Homogenates were centrifuged ([…], 10 min) with supernatants collected and diluted 2-fold by the addition of 2% acetic acid in acetonitrile, followed by centrifugation (14× g, 10 min). MMAE concentration was measured by using LC–MS/MS with a Luna-2 C18 column (Phenomenex, Torrance, CA, USA) and Agilent Trap XCT mass spectrophotometer (Agilent), with extracted ion currents at 686.4 and 506.4 integrated and combined to improve sensitivity. Ion currents were fitted to a standard curve to determine tissue drug concentrations.

tubulin = settings: cited from earlier work
From the text: In the progression of cancers, a matrix metalloproteinase (MMP) remodeling of the extracellular tumor environment is essential for invasion and metastases. The fundamental role that MMPs play in tumor spread has made them a focus for developing new cancer therapies. While inhibitors to MMPs have been developed, pharmacologically blocking MMPs has not proven effective in patients. Alternative to enzymatic inhibition, tumor MMP activity can be therapeutically co-opted for targeting drug delivery. An example of this strategy involves cloaking cell-penetrating peptide–drug c ...

| SMILES | mouse body weights, control versus treated [1] | tissue with highest MMAE level at 2 h ([2]; 2 h, LC-MS/MS) | tumor MMAE concentration versus peri-tumoral muscle by 6 h ([2]; 6 h, LC-MS/MS) | tumor MMAE versus normal tissues at 24 h post-injection ([2]; 24 h, LC-MS/MS, one-way ANOVA with Tukey) | MMAE concentration in normal tissues after 6 h post-drug delivery ([2]; LC-MS/MS) | tumor MMAE concentration over 24 h post-injection ([2]; LC-MS/MS) | time of peak MMAE concentration in all normal tissues (heart, kidney, liver, muscle) ([2]; tissues collected 2, 6, 24 h, MMAE by LC-MS/MS) | potency for mitotic arrest and cell death (tubulin) |
| --- | --- | --- | --- | --- | --- | --- | --- | --- |
| CC[C@H](C)[C@@H]([C@@H](CC(=O)N1CCC[C@H]1[C@H](OC)[C@@H](C)C(=O)N[C@H](C)[C@@H](O)c1ccccc1)OC)N(C)C(=O)[C@@H](NC(=O)[C@H](C(C)C)N(C)C(=O)OCc1ccc(NC(=O)[C@H](CCCNC(N)=O)NC(=O)[C@@H](NC(=O)CCCCCN2C(=O)CC(SC[C@@H](NC(=O)[C@@H](CCCNC(=N)N)NC(=O)[C@@H](CCCNC(=N)N)NC(=O)[C@@H](CCCNC(=N)N)NC(=O)[C@@H](CCCNC(=N)N)NC(=O)[C@@H](CCCNC(=N)N)NC(=O)[C@@H](CCCNC(=N)N)NC(=O)[C@@H](CCCNC(=N)N)NC(=O)[C@@H](CCCNC(=N)N)NC(=O)[C@@H](CCCNC(=N)N)NC(=O)CNC(=O)[C@H](C)NC(=O)[C@H](CSC)NC(=O)CNC(=O)[C@H](CC(C)C)NC(=O)[C@@H]3CCCN3C(=O)COCCNC(=O)[C@@H](CCC(=O)O)NC(=O)[C@@H](CCC(=O)O)NC(=O)[C@@H](CCC(=O)O)NC(=O)[C@@H](CCC(=O)O)NC(=O)[C@@H](CCC(=O)O)NC(=O)[C@@H](CCC(=O)O)NC(=O)[C@@H](CCC(=O)O)NC(=O)[C@@H](CCC(=O)O)NC(=O)[C@@H](CCC(=O)O)NC(=O)CCOCCOCCOCCOCCOCCOCCOCCOCCNC(=O)CCCCCN3C(=O)CC(SC[C@@H]4NC(=O)[C@@H](Cc5ccccc5)NC(=O)[C@H](CC(=O)O)NC(=O)CNC(=O)[C@H](CCCNC(=N)N)NC4=O)C3=O)C(N)=O)C2=O)C(C)C)cc1)C(C)C (some centres unmarked) [cRGD-ACPP-MMAE, cyclo(RGD)fc-MC-HN-peg8-e9-oPLGC(Me)AG-r9-c-(MC-VC-PABC-MMAE)-CONH2] (I: [dE][dE][dE][dE][dE][dE][dE][dE][dE][AEA]PLGC(Me)AG[dR][dR][dR][dR][dR][dR][dR][dR][dR][dC]-NH2 / II: V[Cit][PABC][NMeV]V[Dil][Dolaproine]-X1 / III: cyclo(RGD[dF]C); linker I:26-II:N via Hexanoyl(6-succinimido-3yl); linker I:N-III:5 via X2) | no significant difference | the kidneys had the highest levels of MMAE | higher than the surrounding normal muscle tissue | significantly higher than all normal tissues assayed | rapid decrease | remained relatively constant | 2 h | – |
| CC[C@H](C)[C@@H]([C@@H](CC(=O)N1CCC[C@H]1[C@H](OC)[C@@H](C)C(=O)N[C@H](C)[C@@H](O)c1ccccc1)OC)N(C)C(=O)[C@@H](NC(=O)[C@@H](NC)C(C)C)C(C)C [MMAE, Monomethyl auristatin E] (H-[NMeV]V[Dil][Dolaproine]-X1) | – | – | – | – | – | – | – | single nanomolar range |
